Ends that are not written are not given here. * marks the point of attachment. C16 diacid = O=C(O)CCCCCCCCCCCCCCC(=O)*; Stearoyl = CCCCCCCCCCCCCCCCCC(=O)*; Palmitoyl = CCCCCCCCCCCCCCCC(=O)*; Myristoyl = CCCCCCCCCCCCCC(=O)*
T1: human GIP receptor (human, UniProt P48546 22-466)
T1 construct: whole, on cells; also called hGIPR
T1 sequence (looked up): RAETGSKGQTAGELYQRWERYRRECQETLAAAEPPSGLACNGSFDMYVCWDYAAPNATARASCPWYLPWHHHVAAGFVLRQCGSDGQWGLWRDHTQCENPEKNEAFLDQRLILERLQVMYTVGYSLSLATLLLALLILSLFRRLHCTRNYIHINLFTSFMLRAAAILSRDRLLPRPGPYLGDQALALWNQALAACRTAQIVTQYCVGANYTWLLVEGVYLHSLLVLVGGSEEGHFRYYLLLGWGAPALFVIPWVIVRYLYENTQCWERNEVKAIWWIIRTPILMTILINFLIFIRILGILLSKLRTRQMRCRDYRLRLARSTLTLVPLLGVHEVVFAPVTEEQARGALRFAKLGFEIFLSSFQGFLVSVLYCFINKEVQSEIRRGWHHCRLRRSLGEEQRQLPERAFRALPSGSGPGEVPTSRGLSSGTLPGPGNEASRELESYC

B1: AT126 [hGIP(5-30)NH2-C16/30] (peptide)
peptide: TFISDYSIAMDKIHQQDFVNWLLAQK(Palmitoyl)-NH2
modifications: N-terminus assumed
SMILES: CCCCCCCCCCCCCCCC(=O)NCCCC[C@H](NC(=O)[C@H](CCC(N)=O)NC(=O)[C@H](C)NC(=O)[C@H](CC(C)C)NC(=O)[C@H](CC(C)C)NC(=O)[C@H](Cc1c[nH]c2ccccc12)NC(=O)[C@H](CC(N)=O)NC(=O)[C@@H](NC(=O)[C@H](Cc1ccccc1)NC(=O)[C@H](CC(=O)O)NC(=O)[C@H](CCC(N)=O)NC(=O)[C@H](CCC(N)=O)NC(=O)[C@H](Cc1c[nH]cn1)NC(=O)[C@@H](NC(=O)[C@H](CCCCN)NC(=O)[C@H](CC(=O)O)NC(=O)[C@H](CCSC)NC(=O)[C@H](C)NC(=O)[C@@H](NC(=O)[C@H](CO)NC(=O)[C@H](Cc1ccc(O)cc1)NC(=O)[C@H](CC(=O)O)NC(=O)[C@H](CO)NC(=O)[C@@H](NC(=O)[C@H](Cc1ccccc1)NC(=O)[C@@H](N)[C@@H](C)O)[C@@H](C)CC)[C@@H](C)CC)[C@@H](C)CC)C(C)C)C(N)=O
B2: AT123 [hGIP(5-30)NH2-C14/30] (peptide)
peptide: TFISDYSIAMDKIHQQDFVNWLLAQK(Myristoyl)-NH2
modifications: N-terminus assumed
SMILES: CCCCCCCCCCCCCC(=O)NCCCC[C@H](NC(=O)[C@H](CCC(N)=O)NC(=O)[C@H](C)NC(=O)[C@H](CC(C)C)NC(=O)[C@H](CC(C)C)NC(=O)[C@H](Cc1c[nH]c2ccccc12)NC(=O)[C@H](CC(N)=O)NC(=O)[C@@H](NC(=O)[C@H](Cc1ccccc1)NC(=O)[C@H](CC(=O)O)NC(=O)[C@H](CCC(N)=O)NC(=O)[C@H](CCC(N)=O)NC(=O)[C@H](Cc1c[nH]cn1)NC(=O)[C@@H](NC(=O)[C@H](CCCCN)NC(=O)[C@H](CC(=O)O)NC(=O)[C@H](CCSC)NC(=O)[C@H](C)NC(=O)[C@@H](NC(=O)[C@H](CO)NC(=O)[C@H](Cc1ccc(O)cc1)NC(=O)[C@H](CC(=O)O)NC(=O)[C@H](CO)NC(=O)[C@@H](NC(=O)[C@H](Cc1ccccc1)NC(=O)[C@@H](N)[C@@H](C)O)[C@@H](C)CC)[C@@H](C)CC)[C@@H](C)CC)C(C)C)C(N)=O
B3: AT161 [hGIP(5-30)NH2[H18K]-C18/18] (peptide)
peptide: TFISDYSIAMDKIK(Stearoyl)QQDFVNWLLAQK-NH2
modifications: N-terminus assumed
SMILES: CCCCCCCCCCCCCCCCCC(=O)NCCCC[C@H](NC(=O)[C@@H](NC(=O)[C@H](CCCCN)NC(=O)[C@H](CC(=O)O)NC(=O)[C@H](CCSC)NC(=O)[C@H](C)NC(=O)[C@@H](NC(=O)[C@H](CO)NC(=O)[C@H](Cc1ccc(O)cc1)NC(=O)[C@H](CC(=O)O)NC(=O)[C@H](CO)NC(=O)[C@@H](NC(=O)[C@H](Cc1ccccc1)NC(=O)[C@@H](N)[C@@H](C)O)[C@@H](C)CC)[C@@H](C)CC)[C@@H](C)CC)C(=O)N[C@@H](CCC(N)=O)C(=O)N[C@@H](CCC(N)=O)C(=O)N[C@@H](CC(=O)O)C(=O)N[C@@H](Cc1ccccc1)C(=O)N[C@H](C(=O)N[C@@H](CC(N)=O)C(=O)N[C@@H](Cc1c[nH]c2ccccc12)C(=O)N[C@@H](CC(C)C)C(=O)N[C@@H](CC(C)C)C(=O)N[C@@H](C)C(=O)N[C@@H](CCC(N)=O)C(=O)N[C@@H](CCCCN)C(N)=O)C(C)C
B4: AT157 [hGIP(5-30)NH2[K16R; H18K; K30R]-C16diacid/18] (peptide)
peptide: TFISDYSIAMDRIK(C16 diacid)QQDFVNWLLAQR-NH2
modifications: N-terminus assumed
SMILES: CC[C@H](C)[C@H](NC(=O)[C@H](CO)NC(=O)[C@H](Cc1ccc(O)cc1)NC(=O)[C@H](CC(=O)O)NC(=O)[C@H](CO)NC(=O)[C@@H](NC(=O)[C@H](Cc1ccccc1)NC(=O)[C@@H](N)[C@@H](C)O)[C@@H](C)CC)C(=O)N[C@@H](C)C(=O)N[C@@H](CCSC)C(=O)N[C@@H](CC(=O)O)C(=O)N[C@@H](CCCNC(=N)N)C(=O)N[C@H](C(=O)N[C@@H](CCCCNC(=O)CCCCCCCCCCCCCCC(=O)O)C(=O)N[C@@H](CCC(N)=O)C(=O)N[C@@H](CCC(N)=O)C(=O)N[C@@H](CC(=O)O)C(=O)N[C@@H](Cc1ccccc1)C(=O)N[C@H](C(=O)N[C@@H](CC(N)=O)C(=O)N[C@@H](Cc1c[nH]c2ccccc12)C(=O)N[C@@H](CC(C)C)C(=O)N[C@@H](CC(C)C)C(=O)N[C@@H](C)C(=O)N[C@@H](CCC(N)=O)C(=O)N[C@@H](CCCNC(=N)N)C(N)=O)C(C)C)[C@@H](C)CC
B5: AT293 [hGIP(5-30)NH2[T5KK]-C16diacid/5] (peptide)
peptide: K(C16 diacid)FISDYSIAMDKIHQQDFVNWLLAQK-NH2
modifications: N-terminus assumed
SMILES: CC[C@H](C)[C@H](NC(=O)[C@H](CO)NC(=O)[C@H](Cc1ccc(O)cc1)NC(=O)[C@H](CC(=O)O)NC(=O)[C@H](CO)NC(=O)[C@@H](NC(=O)[C@H](Cc1ccccc1)NC(=O)[C@@H](N)CCCCNC(=O)CCCCCCCCCCCCCCC(=O)O)[C@@H](C)CC)C(=O)N[C@@H](C)C(=O)N[C@@H](CCSC)C(=O)N[C@@H](CC(=O)O)C(=O)N[C@@H](CCCCN)C(=O)N[C@H](C(=O)N[C@@H](Cc1c[nH]cn1)C(=O)N[C@@H](CCC(N)=O)C(=O)N[C@@H](CCC(N)=O)C(=O)N[C@@H](CC(=O)O)C(=O)N[C@@H](Cc1ccccc1)C(=O)N[C@H](C(=O)N[C@@H](CC(N)=O)C(=O)N[C@@H](Cc1c[nH]c2ccccc12)C(=O)N[C@@H](CC(C)C)C(=O)N[C@@H](CC(C)C)C(=O)N[C@@H](C)C(=O)N[C@@H](CCC(N)=O)C(=O)N[C@@H](CCCCN)C(N)=O)C(C)C)[C@@H](C)CC
B6: AT125 [hGIP(5-30)NH2-C16/16] (peptide)
peptide: TFISDYSIAMDK(Palmitoyl)IHQQDFVNWLLAQK-NH2
modifications: N-terminus assumed
SMILES: CCCCCCCCCCCCCCCC(=O)NCCCC[C@H](NC(=O)[C@H](CC(=O)O)NC(=O)[C@H](CCSC)NC(=O)[C@H](C)NC(=O)[C@@H](NC(=O)[C@H](CO)NC(=O)[C@H](Cc1ccc(O)cc1)NC(=O)[C@H](CC(=O)O)NC(=O)[C@H](CO)NC(=O)[C@@H](NC(=O)[C@H](Cc1ccccc1)NC(=O)[C@@H](N)[C@@H](C)O)[C@@H](C)CC)[C@@H](C)CC)C(=O)N[C@H](C(=O)N[C@@H](Cc1c[nH]cn1)C(=O)N[C@@H](CCC(N)=O)C(=O)N[C@@H](CCC(N)=O)C(=O)N[C@@H](CC(=O)O)C(=O)N[C@@H](Cc1ccccc1)C(=O)N[C@H](C(=O)N[C@@H](CC(N)=O)C(=O)N[C@@H](Cc1c[nH]c2ccccc12)C(=O)N[C@@H](CC(C)C)C(=O)N[C@@H](CC(C)C)C(=O)N[C@@H](C)C(=O)N[C@@H](CCC(N)=O)C(=O)N[C@@H](CCCCN)C(N)=O)C(C)C)[C@@H](C)CC
B7: AT156 [hGIP(5-30)NH2[H18K]-C16diacid/18] (peptide)
peptide: TFISDYSIAMDKIK(C16 diacid)QQDFVNWLLAQK-NH2
modifications: N-terminus assumed
SMILES: CC[C@H](C)[C@H](NC(=O)[C@H](CO)NC(=O)[C@H](Cc1ccc(O)cc1)NC(=O)[C@H](CC(=O)O)NC(=O)[C@H](CO)NC(=O)[C@@H](NC(=O)[C@H](Cc1ccccc1)NC(=O)[C@@H](N)[C@@H](C)O)[C@@H](C)CC)C(=O)N[C@@H](C)C(=O)N[C@@H](CCSC)C(=O)N[C@@H](CC(=O)O)C(=O)N[C@@H](CCCCN)C(=O)N[C@H](C(=O)N[C@@H](CCCCNC(=O)CCCCCCCCCCCCCCC(=O)O)C(=O)N[C@@H](CCC(N)=O)C(=O)N[C@@H](CCC(N)=O)C(=O)N[C@@H](CC(=O)O)C(=O)N[C@@H](Cc1ccccc1)C(=O)N[C@H](C(=O)N[C@@H](CC(N)=O)C(=O)N[C@@H](Cc1c[nH]c2ccccc12)C(=O)N[C@@H](CC(C)C)C(=O)N[C@@H](CC(C)C)C(=O)N[C@@H](C)C(=O)N[C@@H](CCC(N)=O)C(=O)N[C@@H](CCCCN)C(N)=O)C(C)C)[C@@H](C)CC

Columns and labels:
[1] = molecular target: T1, human GIP receptor; experiment: 125I-hGIP competition binding, COS-7 cells expressing hGIPR;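 note: nonspecific binding taken as radioligand bound by untransfected cells, binding buffer with or without 2% HSA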
Method: (§1) After incubation, the cells were washed twice in ice-cold binding buffer (+/−2% HSA) and lysed using 200 mM NaOH with 1% SDS for 30 min. Nonspecific binding was determined as the binding of radioactive ligand to untransfected cells.

[2] = molecular target: T1, human GIP receptor; experiment: cell-based or functional assay
[3] = molecular target: T1, human GIP receptor; experiment: 125I-hGIP competition binding, COS-7/hGIPR, 0.1% casein;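 note: nonspecific binding defined as radioligand binding measured on untransfected cells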
Method: as §1

Binder | IC50 [1] [nM] | log IC50 [1] [log M] | cAMP agonism [2] [nM] | cAMP agonism, EC50 (log) [2] [log M] | cAMP agonism, Emax [2] | cAMP antagonism [2] [nM] | cAMP antagonism, log [2] [log M] | IC50 [3] [nM] | logIC50 [3] [log M]
B1 | 7790 | -5.1 |  |  |  |  |  |  | 
B2 | 674 | -6.2 |  |  |  |  |  |  | 
TFISDYSIAMDK(C18 fatty acyl)IHQQDFVNWLLAQK-NH2 [AT128 [hGIP(5-30)NH2-C18/16]] | 466 | -6.3 |  |  |  |  |  |  | 
B3 |  |  | 1060 | -6 | 7 | 252 | -6.6 |  | 
B4 |  |  | 3 | -8 | 12 | 7 | -8.1 |  | 
B5 |  |  |  |  | 0 | 14 | -7.8 |  | 
{C18 fatty acyl}-TFISDYSIAMDKIHQQDFVNWLLAQK-NH2 [AT127 [hGIP(5-30)NH2-C18/5]] | 2040 | -5.7 |  |  |  |  |  | 1470 | -5.8
B6 | 714 | -6.1 |  |  |  |  |  |  | 
B7 |  |  | 2 | -9 | 12 | 12 | -7.9 |  | 

— patent US20200087373A1 (UNIVERSITY OF COPENHAGEN, published 2020)
